The record followed here is patent US20260274985A1 (MYTHIC THERAPEUTICS, published 2026).

The assay deals with T1, Human TROP2 Protein, His Tag (Acro Biosystems) (human, UniProt P09758 27-274).
T1 construct: Bought protein; also called TACSTD2; not shown: His tag
T1 sequence: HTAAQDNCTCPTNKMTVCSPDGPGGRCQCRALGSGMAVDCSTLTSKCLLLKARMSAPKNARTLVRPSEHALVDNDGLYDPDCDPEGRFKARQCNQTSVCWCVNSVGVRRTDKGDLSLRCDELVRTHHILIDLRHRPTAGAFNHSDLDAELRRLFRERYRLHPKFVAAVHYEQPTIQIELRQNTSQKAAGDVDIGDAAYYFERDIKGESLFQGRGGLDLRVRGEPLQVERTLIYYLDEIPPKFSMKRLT
In words: BLI (Octet).

B1: MYT12427 (hu7E6SVG variant, HCV substitutions at 102, 106) (antibody, V domains shown)
VH: QVQLQESGPGLVKPSETLSLTCTVSGGSISSYGVHWIRQPPGKGLEWIGVIWTSGVTDYNSALMGRVTISVDTSKNQFSLKLSSVTAADTAVYYCARDGDYHRYTHDYWGQGTLVTVSS
VL: DIVMTQSPDSLAVSLGERATINCRASKSVSTSGYSYMHWYQQKPGQPPKLLIYLASNLESGVPDRFSGSGSGTDFTLTISSLQAEDVAVYYCQHSRELPYTFGQGTKLEIK
Regarding B1, the binding result is “binds”.

B2: MYT12437 (hu7E6SVG variant, HCV substitutions at 51, 103, 106) (antibody, V domains shown)
VH: QVQLQESGPGLVKPSETLSLTCTVSGGSISSYGVHWIRQPPGKGLEWIGVHWTSGVTDYNSALMGRVTISVDTSKNQFSLKLSSVTAADTAVYYCARDGDYDHYTHDYWGQGTLVTVSS
VL: DIVMTQSPDSLAVSLGERATINCRASKSVSTSGYSYMHWYQQKPGQPPKLLIYLASNLESGVPDRFSGSGSGTDFTLTISSLQAEDVAVYYCQHSRELPYTFGQGTKLEIK
For the molecule B2, the binding result was “binds”.

B3: MYT12430 (hu7E6SVG variant, HCV substitutions at 33, 51, 103) (antibody, V domains shown)
VH: QVQLQESGPGLVKPSETLSLTCTVSGGSISSYHVHWIRQPPGKGLEWIGVHWTSGVTDYNSALMGRVTISVDTSKNQFSLKLSSVTAADTAVYYCARDGDYDHYTMDYWGQGTLVTVSS
VL: DIVMTQSPDSLAVSLGERATINCRASKSVSTSGYSYMHWYQQKPGQPPKLLIYLASNLESGVPDRFSGSGSGTDFTLTISSLQAEDVAVYYCQHSRELPYTFGQGTKLEIK
As to B3, the binding result was “binds”.

B4: MYT12432 (hu7E6SVG variant, HCV substitutions at 33, 56, 103) (antibody, V domains shown)
VH: QVQLQESGPGLVKPSETLSLTCTVSGGSISSYHVHWIRQPPGKGLEWIGVIWTSGHTDYNSALMGRVTISVDTSKNQFSLKLSSVTAADTAVYYCARDGDYDHYTMDYWGQGTLVTVSS
VL: DIVMTQSPDSLAVSLGERATINCRASKSVSTSGYSYMHWYQQKPGQPPKLLIYLASNLESGVPDRFSGSGSGTDFTLTISSLQAEDVAVYYCQHSRELPYTFGQGTKLEIK
Consider B4, for which the binding result is listed as “binds”.

B5: MYT12447 (hu7E6SVG variant, LCV substitutions at 60, 101) (antibody, V domains shown)
VH: QVQLQESGPGLVKPSETLSLTCTVSGGSISSYGVHWIRQPPGKGLEWIGVIWTSGVTDYNSALMGRVTISVDTSKNQFSLKLSSVTAADTAVYYCARDGDYDRYTMDYWGQGTLVTVSS
VL: DIVMTQSPDSLAVSLGERATINCRASKSVSTSGYSYMHWYQQKPGQPPKLLIYLASNLEHGVPDRFSGSGSGTDFTLTISSLQAEDVAVYYCQHSRELPYHFGQGTKLEIK
notes: Full IgG in Expi293 supernatant
For the molecule B5, the binding result is reported as “binds”.

B6: MYT12438 (hu7E6SVG variant, HCV substitutions at 56, 103, 106) (antibody, V domains shown)
VH: QVQLQESGPGLVKPSETLSLTCTVSGGSISSYGVHWIRQPPGKGLEWIGVIWTSGHTDYNSALMGRVTISVDTSKNQFSLKLSSVTAADTAVYYCARDGDYDHYTHDYWGQGTLVTVSS
VL: DIVMTQSPDSLAVSLGERATINCRASKSVSTSGYSYMHWYQQKPGQPPKLLIYLASNLESGVPDRFSGSGSGTDFTLTISSLQAEDVAVYYCQHSRELPYTFGQGTKLEIK
As to B6, the binding result is “binds”.

B7: MYT12445 (hu7E6SVG variant, LCV substitutions at 60, 94 (Ala at 94)) (antibody, V domains shown)
VH: QVQLQESGPGLVKPSETLSLTCTVSGGSISSYGVHWIRQPPGKGLEWIGVIWTSGVTDYNSALMGRVTISVDTSKNQFSLKLSSVTAADTAVYYCARDGDYDRYTMDYWGQGTLVTVSS
VL: DIVMTQSPDSLAVSLGERATINCRASKSVSTSGYSYMHWYQQKPGQPPKLLIYLASNLEHGVPDRFSGSGSGTDFTLTISSLQAEDVAVYYCQASRELPYTFGQGTKLEIK
notes: as for B5
Regarding B7, the binding result is recorded as “binds”.

B8: MYT12442 (hu7E6SVG variant, LCV substitutions at 59, 97) (antibody, V domains shown)
VH: QVQLQESGPGLVKPSETLSLTCTVSGGSISSYGVHWIRQPPGKGLEWIGVIWTSGVTDYNSALMGRVTISVDTSKNQFSLKLSSVTAADTAVYYCARDGDYDRYTMDYWGQGTLVTVSS
VL: DIVMTQSPDSLAVSLGERATINCRASKSVSTSGYSYMHWYQQKPGQPPKLLIYLASNLHSGVPDRFSGSGSGTDFTLTISSLQAEDVAVYYCQHSRHLPYTFGQGTKLEIK
notes: as for B5
As to B8, the binding result is on record as “binds”.

B9: MYT12435 (hu7E6SVG variant, HCV substitutions at 51, 56, 103) (antibody, V domains shown)
VH: QVQLQESGPGLVKPSETLSLTCTVSGGSISSYGVHWIRQPPGKGLEWIGVHWTSGHTDYNSALMGRVTISVDTSKNQFSLKLSSVTAADTAVYYCARDGDYDHYTMDYWGQGTLVTVSS
VL: DIVMTQSPDSLAVSLGERATINCRASKSVSTSGYSYMHWYQQKPGQPPKLLIYLASNLESGVPDRFSGSGSGTDFTLTISSLQAEDVAVYYCQHSRELPYTFGQGTKLEIK
With B9, the binding result is “binds”.

B10: MYT12441 (hu7E6SVG variant, LCV substitutions at 59, 94 (Ala at 94)) (antibody, V domains shown)
VH: QVQLQESGPGLVKPSETLSLTCTVSGGSISSYGVHWIRQPPGKGLEWIGVIWTSGVTDYNSALMGRVTISVDTSKNQFSLKLSSVTAADTAVYYCARDGDYDRYTMDYWGQGTLVTVSS
VL: DIVMTQSPDSLAVSLGERATINCRASKSVSTSGYSYMHWYQQKPGQPPKLLIYLASNLHSGVPDRFSGSGSGTDFTLTISSLQAEDVAVYYCQASRELPYTFGQGTKLEIK
notes: as for B5
For B10, the binding result is “binds”.

B11: MYT12436 (hu7E6SVG variant, HCV substitutions at 51, 56, 106) (antibody, V domains shown)
VH: QVQLQESGPGLVKPSETLSLTCTVSGGSISSYGVHWIRQPPGKGLEWIGVHWTSGHTDYNSALMGRVTISVDTSKNQFSLKLSSVTAADTAVYYCARDGDYDRYTHDYWGQGTLVTVSS
VL: DIVMTQSPDSLAVSLGERATINCRASKSVSTSGYSYMHWYQQKPGQPPKLLIYLASNLESGVPDRFSGSGSGTDFTLTISSLQAEDVAVYYCQHSRELPYTFGQGTKLEIK
Regarding B11, the binding result is recorded as “binds”.

B12: MYT12428 (hu7E6SVG variant, HCV substitutions at 103, 106) (antibody, V domains shown)
VH: QVQLQESGPGLVKPSETLSLTCTVSGGSISSYGVHWIRQPPGKGLEWIGVIWTSGVTDYNSALMGRVTISVDTSKNQFSLKLSSVTAADTAVYYCARDGDYDHYTHDYWGQGTLVTVSS
VL: DIVMTQSPDSLAVSLGERATINCRASKSVSTSGYSYMHWYQQKPGQPPKLLIYLASNLESGVPDRFSGSGSGTDFTLTISSLQAEDVAVYYCQHSRELPYTFGQGTKLEIK
On to B12, for which the binding result is on record as “binds”.

B13: MYT12443 (hu7E6SVG variant, LCV substitutions at 59, 101) (antibody, V domains shown)
VH: QVQLQESGPGLVKPSETLSLTCTVSGGSISSYGVHWIRQPPGKGLEWIGVIWTSGVTDYNSALMGRVTISVDTSKNQFSLKLSSVTAADTAVYYCARDGDYDRYTMDYWGQGTLVTVSS
VL: DIVMTQSPDSLAVSLGERATINCRASKSVSTSGYSYMHWYQQKPGQPPKLLIYLASNLHSGVPDRFSGSGSGTDFTLTISSLQAEDVAVYYCQHSRELPYHFGQGTKLEIK
notes: as for B5
For B13, the binding result is given as “binds”.

B14: MYT12446 (hu7E6SVG variant, LCV substitutions at 60, 97) (antibody, V domains shown)
VH: QVQLQESGPGLVKPSETLSLTCTVSGGSISSYGVHWIRQPPGKGLEWIGVIWTSGVTDYNSALMGRVTISVDTSKNQFSLKLSSVTAADTAVYYCARDGDYDRYTMDYWGQGTLVTVSS
VL: DIVMTQSPDSLAVSLGERATINCRASKSVSTSGYSYMHWYQQKPGQPPKLLIYLASNLEHGVPDRFSGSGSGTDFTLTISSLQAEDVAVYYCQHSRHLPYTFGQGTKLEIK
notes: as for B5
In the case of B14, the binding result was “binds”.

B15: MYT12444 (hu7E6SVG variant, LCV substitutions at 60, 93) (antibody, V domains shown)
VH: QVQLQESGPGLVKPSETLSLTCTVSGGSISSYGVHWIRQPPGKGLEWIGVIWTSGVTDYNSALMGRVTISVDTSKNQFSLKLSSVTAADTAVYYCARDGDYDRYTMDYWGQGTLVTVSS
VL: DIVMTQSPDSLAVSLGERATINCRASKSVSTSGYSYMHWYQQKPGQPPKLLIYLASNLEHGVPDRFSGSGSGTDFTLTISSLQAEDVAVYYCHHSRELPYTFGQGTKLEIK
notes: as for B5
Consider B15, for which the binding result is “binds”.
